One test addresses PL37-MAP (Homo sapiens, UniProt P01031). The test can be described thus: Surface plasmon resonance (Biacore) binding of C-peptides to immobilized PL37-MAP. The conditions noted are these: PBS, 25° C., 10 μl/min, EA-blocked cell subtracted. The protocol: Binding interactions between PL37 or C5a with C-peptides were evaluated using surface plasmon resonance (SPR) technology with the Biacore system. PL37 and C5a were covalently immobilized on the CM5 sensor chip by amine coupling methods using N-ethyl-N-(dimethylaminopropyl)carbodiimide/N-hydroxysuccinimide (EDC/NHS) according to the manufacturer's instructions. We activated the surface of the CM5 sensor chip with EDC/NHS for 20 min before injection with PL37-MAP (200 μg/ml in 10 mM sodium carbonate buffer, pH 8.5, over flow cell 2) or C5a (100 μg/ml in 10 mM acetate buffer, pH 5, over flow cell 3). Afterwards, excess NHS was deactivated for 20 min with 1 M ethanolamine hydrochloride (EA), pH 8.5. The reference flow cell was activated with EDC/NHS, and blocked with EA. Coupling was performed at a flow rate of 5 μl/min at 25° C. in PBS. Analyte (30 μl of C-peptide A or B) was injected at 10 μl/min at 25° C. in PBS. Binding interactions were determined by passing samples simultaneously over both the EA-blocked cell and the flow cell with immobilized PL37 or C5a so as to obtain units of resonance response (RU) by subtraction of the background using Biacore software (BIA evaluation).
The Biacore instrument which uses SPR technology measures association and dissociation in real time of an unlabeled analyte with an immobilized ligand. […]
A general note: Surface plasmon resonance follows binding to a sensor surface in real time, without labels.

Test [1] concerns TGW human neuroblastoma cells bearing C5aR. In words: Patch clamp measurement of inward ion current pulses induced by PL37-MAP. It is filed as cell-based. The conditions noted are these: 500 nM PL37-MAP, 50 μM C-peptide. The protocol: The measurements were carried out on TGW human neuroblastoma cells bearing C5aR. Cells were voltage-clamped at room temperature at a holding potential of −70 mV using a whole cell clamp configuration. The instruments used for electrophysiology were as follows: an Axopatch 200-A patch clamp amplifier, a Digidata-1200 data acquisition system and pCLAMP 6.02 software from Axon Instruments Inc., (Foster City, Calif.). The head stage of the amplifier was fitted to an MHW-3 hydraulic manipulator manufactured by Narishige Inc. (Tokyo, Japan); and the cells were visualized using an Olympus IMT-2 invert microscope. Data acquisition and analysis were performed using an IBM compatible personal computer. Patch electrodes (OD=1.5 mm, thin wall, Garner Glass Co., Claremont, Calif.) were pulled with a PP-83 puller and polished with an MF-83 microforge (Narishige Inc). The resistance of patch electrodes was 8-10 MΩ. The solutions used were as follows: an extracellular solution (10 mM Hepes, 140 mM NaCl, 5 mM KCI, 2 mM CaCl2, 2 mM MgCl2, 10 mM glucose, pH=7.34) and an intracellular pipette solution (10 mM Hepes, 110 mM KCl, 15 mM NaCl, 0.1 mM CaCl2, 2 mM MgCl2, 1 mM EGTA, pH 7.25). […]
Inward calcium current pulses detected by a patch clamp assay were evoked when TGW cells were exposed to 500 nM PL37-MAP (FIG. 2a). […]
(The patch-clamp technique gives a direct electrical read-out from membranes.)

The target in another test is T1, C5a (Homo sapiens, UniProt P01031).
T1 sequence (P01031 678-751 limits assumed): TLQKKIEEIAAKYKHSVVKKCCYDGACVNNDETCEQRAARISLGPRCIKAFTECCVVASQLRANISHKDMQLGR
In words: Intracellular Ca++ mobilization in neutrophils triggered by C5a (calcium imaging). The conditions noted are these: 0.7 nM C5a, human neutrophils. In kind it is cell-based. The protocol:
Neutrophils were isolated from fresh human blood with 0.2% EDTA as an anticoagulant. Whole blood was collected from a healthy volunteer (a collaborator of this study) via vein puncture. A 2.4 ml aliquot of blood was then layered onto 2 ml Mono-Poly Resolving Medium (Dainihon Seiyaku, Tokyo, Japan) in a centrifuge tube and centrifuged at 400 g for 20 min at room temperature. The polymorphonuclear leukocytes (neutrophils) were then harvested and the cell fraction was washed with Hanks' balanced salt solution (HBSS).
The isolated neutrophils were loaded with 2 μM Fura-2/AM (Molecular Probes, Eugene, Oreg.) mixed with 0.02% Pluronic F-127 (Molecular Probes) and 0.2% DMSO in HBSS for 40 min at 37° C. The suspension was agitated to prevent sedimentation. After loading, the cells were washed with HBSS twice and suspended in HBSS containing 0.3% BSA (HBSS/BSA). Approximately 1×10^6 cells in 900 μl HBSS/BSA were added to a poly-L-lysine-coated 35 mm Petri dish and allowed to attach to the bottom of the dish for 30 min. Changes in intracellular calcium concentrations in response to C5a or a mixture of peptides (C-peptides and C5a) were determined by monitoring the ratio of fluorescence light emission at 5I0 nm as a result of excitation at 340 and 380 nm at 37° C. using an ARGUS HiSCA calcium imaging system (Hamamatsu Photonics, Hamamatsu, Japan). The mixture of peptides and C5a was incubated in an Eppendorf tube on ice for 30 min in the HBSS solution and then applied to the cells after a 2 min baseline recording.
The effect of C-peptides on C5a function was analyzed by measuring Ca^++ mobilization using an ARUGUS HiSCA calcium imaging system. Administration of 0.7 nM recombinant human C5a (RhC5a) induced a transient increase in the level of intracellular Ca^++ of human neutrophils (FIG. 3a). The level of this activation was about 50% of the maximum achieved with higher concentrations of C5a. A mixture of C-peptide and C5a was incubated in an Eppendorf tube on ice for 30 min in the HBSS solution and then applied to the cells. […]

We go through 1 sequence from patent publication US7763708B2, “Methods and compositions for modulating C5-a-mediated inflammatory responses” (Institute for Protein Science Co., Ltd., priority 2004, dated 2010).

“Also recorded” adds a separate entry of the source.

On to ASTAPARAGLPRLPKFF [Pep-B], for which the “Binding to PL37-MAP-coupled flow cell” value with PL37-MAP is “did not”. The “Inhibition of inward ion current pulse evoked by PL37-MAP” value in test [1] is given as “did not have any effect; also recorded: did not block”. Besides, the “Inhibition of C5a-triggered Ca++ mobilization” value with C5a (70 nM C-peptide) and with C5a (700 nM C-peptide) was “failed to cause inhibition; also recorded: no inhibition” in each case.
